Where two headings read alike, the source gives them in different places.
How the values were obtained:
[1] = molecular target: T1, GST-fused Par-3 PDZ2 with its associated basic region (BR-PDZ2) (UniProt O96782 1-1464)
T1 chain: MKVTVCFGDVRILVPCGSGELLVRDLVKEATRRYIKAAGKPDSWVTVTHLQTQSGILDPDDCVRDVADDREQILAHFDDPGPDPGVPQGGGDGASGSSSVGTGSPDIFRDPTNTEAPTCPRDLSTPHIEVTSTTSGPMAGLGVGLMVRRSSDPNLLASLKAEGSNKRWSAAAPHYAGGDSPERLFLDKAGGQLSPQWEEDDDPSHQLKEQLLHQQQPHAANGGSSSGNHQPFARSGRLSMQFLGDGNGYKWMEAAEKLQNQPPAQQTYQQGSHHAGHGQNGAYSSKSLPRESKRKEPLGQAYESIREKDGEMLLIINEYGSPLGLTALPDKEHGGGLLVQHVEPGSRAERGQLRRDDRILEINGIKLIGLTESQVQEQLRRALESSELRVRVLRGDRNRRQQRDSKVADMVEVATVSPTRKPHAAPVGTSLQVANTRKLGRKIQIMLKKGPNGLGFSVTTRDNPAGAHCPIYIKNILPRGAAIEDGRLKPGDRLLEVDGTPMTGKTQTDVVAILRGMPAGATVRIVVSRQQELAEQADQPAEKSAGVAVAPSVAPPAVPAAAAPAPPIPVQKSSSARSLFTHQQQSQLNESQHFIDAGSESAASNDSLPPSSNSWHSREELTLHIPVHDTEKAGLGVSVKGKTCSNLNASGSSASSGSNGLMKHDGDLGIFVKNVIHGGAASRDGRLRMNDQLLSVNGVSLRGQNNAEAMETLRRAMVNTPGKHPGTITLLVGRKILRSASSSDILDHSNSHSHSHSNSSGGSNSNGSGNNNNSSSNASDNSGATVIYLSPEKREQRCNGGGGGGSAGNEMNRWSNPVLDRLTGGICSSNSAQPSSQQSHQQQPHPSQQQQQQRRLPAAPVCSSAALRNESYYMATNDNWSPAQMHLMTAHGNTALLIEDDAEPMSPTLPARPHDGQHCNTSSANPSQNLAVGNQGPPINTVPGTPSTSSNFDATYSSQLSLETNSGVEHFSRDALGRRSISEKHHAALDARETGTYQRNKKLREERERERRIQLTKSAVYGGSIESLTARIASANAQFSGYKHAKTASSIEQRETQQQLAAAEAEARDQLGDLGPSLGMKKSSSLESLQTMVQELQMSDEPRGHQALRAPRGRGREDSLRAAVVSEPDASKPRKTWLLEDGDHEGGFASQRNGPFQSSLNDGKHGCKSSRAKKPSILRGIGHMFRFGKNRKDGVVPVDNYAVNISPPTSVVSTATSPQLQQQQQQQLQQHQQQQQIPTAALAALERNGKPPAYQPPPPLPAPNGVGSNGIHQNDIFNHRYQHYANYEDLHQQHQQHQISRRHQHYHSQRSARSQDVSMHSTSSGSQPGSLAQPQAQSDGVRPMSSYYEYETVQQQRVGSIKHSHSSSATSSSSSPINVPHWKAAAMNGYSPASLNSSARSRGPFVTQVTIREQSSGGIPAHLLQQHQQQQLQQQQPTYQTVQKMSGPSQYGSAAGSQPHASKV

[2] = molecular target: T1, GST-fused Par-3 PDZ2 with its …; assay: with Par-6 CRIB-PDZ added in trans
GST-fused Par-6 CRIB-PDZ = molecular target: T2, GST-fused Par-6 CRIB-PDZ (UniProt O97111 130-255); assay: pull-down; GST-Par-6 CRIB-PDZ on glutathione resin, Par complex ΔCRIB-PDZ with soluble Par-3 BR-PDZ2 added; same buffer, 60 min at RT; Coomassie, normalized band intensity of aPKC; conditions: both partners purified
T2 construct: Par-6, CRIB motif and PDZ domain; also called GST Par-6 CRIB-PDZ
T2 sequence (looked up): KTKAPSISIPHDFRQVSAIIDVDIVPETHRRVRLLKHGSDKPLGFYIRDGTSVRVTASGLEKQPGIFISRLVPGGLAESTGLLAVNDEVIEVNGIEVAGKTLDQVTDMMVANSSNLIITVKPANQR

Kd [1]: 161 µM | Kd [2]: 11.3 µM | fold increase of binding with Par-3 PDZ2 against without Par-3 (GST-fused Par-6 CRIB-PDZ): > 20 fold
B1: Par complex ΔCRIB-PDZ (full-length aPKC plus the Par-6 PB1 domain) (complex)
chain 1: MQKMPSQILNDGSSVSLNSASMNMANTPNSITVKTAYNGQIIITTINKNISYEELCYEIRNICRFPLDQPFTIKWVDEENDPCTISTKMELDEAIRLYEMNFDSQLVIHVFPNVPQAPGLSCDGEDRSIYRRGARRWRKLYRVNGHIFQAKRFNRRAFCAYCQDRIWGLGRQGFKCIQCKLLVHKKCHKLVQKHCTDQPEPLVKERAEESSDPIPVPLPPLPYEAMSGGAEACETHDHAHIVAPPPPEDPLEPGTQRQYSLNDFELIRVIGRGSYAKVLMVELRRTRRIYAMKVIKKALVTDDEDIDWVQTEKHVFETASNHPFLVGLHSCFQTPSRLFFVIEFVRGGDLMYHMQRQRRLPEEHARFYAAEISLALNFLHEKGIIYRDLKLDNVLLDHEGHIKLTDYGMCKEGIRPGDTTSTFCGTPNYIAPEILRGEDYGFSVDWWALGVLLYEMLAGRSPFDLAGASENPDQNTEDYLFQVILEKTIRIPRSLSVRAASVLKGFLNKNPADRLGCHRESAFMDIVSHPFFKNMDWELLERKQVTPPFKPRLDSDRDLANFPPEFTGEAVQLTPDDDHVIDNIDQSEFEGFEYVNPLLMSLEDCV
chain 2: MSKNKINTTSATAASDTNLIEVKSKFDAEFRRWSFKRNEAEQSFDKFASLIEQLHKLTNIQFLILYIDPRDNDLLPINNDDNFGRALKTARPLLRVIVQRKDDLNEYSGFGTMKPRNLIGSILMGHTPV
notes: atypical PKC (aPKC), full length; Par-6, PB1 domain; The complex was His-purified; also called full-length aPKC with Par-6 PB1; source: HEK 293F, co-transfected, purified (cobalt resin, anion exchange)
